Laboratory results as given in patent US20260193307A1 (ASKGENE PHARMA, published 2026).

What was measured:
IL-2 [1] = target: T1, IL-2 (UniProt P60568 21-153); assay: ForteBio (BLI), purified scFv-Fc to IL-2
IL-2 [2] = target: T1, IL-2; assay: cell-based or functional assay

T1 sequence (P60568 21-153 limits assumed): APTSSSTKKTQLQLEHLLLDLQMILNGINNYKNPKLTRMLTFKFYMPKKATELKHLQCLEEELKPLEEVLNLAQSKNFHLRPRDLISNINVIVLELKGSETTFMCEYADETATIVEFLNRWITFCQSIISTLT

Row | Binder | Kd (IL-2 [1]) | Response (IL-2 [1]) | IC50, CTLL2 cell-based IL-2 activity inhibition assay (50 nM IL-2) (IL-2 [2])
1 | K1-69C7 scFv-Fc (JR8.153.1) (Fc fusion, Purified scFv-Fc homodimer; also called JR8.153.1 K1-69C7; not shown: Fc fragment (human Fc domain)) DIQMTQSPSSLSASVGDRVTITCRASQDISNYLNWYQQKPGKAPKLLIYGASSLQSGVPSRFSGSGSGTDFTLTISSLQPEDFATYYCQQTYTIPLTFGQGTKVEIKAGGGGSGGGGSGGGGSQVQLVQSGAEVKKPGSSVKVSCKASGGTFTSYAINWVRQAPGQGLEWMGRIIPIIGRVDYAQKFQGRVTITADESTSTAYMELSSLRSEDTAVYYCARGFVGGFDVWGQGTLVTVSS | 0.117 nM | 3.5 | 7 nM
2 | K3-30B12 scFv-Fc (JR8.156.6) (Fc fusion, Purified scFv-Fc homodimer; also called JR8.156.6 K3-30B12; not shown: Fc fragment (human Fc domain)) DIQMTQSPSSLSASVGDRVTITCRASQDISTYLNWYQQKPGKAPKLLIYDASSLQSGVPSRFSGSGSGTDFTLTISSLQPEDFATYYCQQSYSAPLTFGQGTKVEIKAGGGGSGGGGSGGGGSEVQLLESGGGLVQPGGSLRLSCAASGFTFSTYAMSWVRQAPGKGLEWVSTISGSGVRTYYADSVKGRFTISRDNSKNTLYLQMNSLRAEDTAVYYCARETYIYGPFDVWGQGTLVTVSS | 0.605 nM | 3.1 | 

Now those with a lower Kd (IL-2 [1]), led by results:

Row | Kd (IL-2 [1]) | Response (IL-2 [1]) | IC50, CTLL2 cell-based IL-2 activity inhibition assay (50 nM IL-2) (IL-2 [2]) | Binder
3 | < 0.001 nM | 3 |  | K3-15F7 scFv-Fc (JR8.144.4) (Fc fusion, Purified scFv-Fc homodimer; also called JR8.144.4 K3-15F7; not shown: Fc fragment (human Fc domain)) DIQMTQSPSSLSASVGDRVTITCRASQDIRRYLNWYQQKPGKAPKLLIYAASSLQSGVPSRFSGSGSGTDFTLTISSLQPEDFATYYCQQAYSIPLTFGQGTKVEIKGGGGSGGGGSGGGGSEVQLVESGGGLVKPGGSLRLSCAASGFTFSNAWMSWVRQAPGKGLEWVGRIKSKTAGGTTDYAAPVKGRFTISRDDSKNTLYLQMNSLKTEDTAVYYCARDWWYLDFDYWGQGTLVTVSS
4 | < 0.001 nM | 3 | 11.3 nM | K1-69H5 scFv-Fc (JR8.144.3) (Fc fusion, Purified scFv-Fc homodimer; also called JR8.144.3 K1-69H5; not shown: Fc fragment (human Fc domain)) EIVLTQSPGTLSLSPGERATLSCRASQSVSSSYLAWYQQKPGQAPRLLIYGASSRATGIPDRFSGSGSGTDFTLTISRLEPEDFAVYYCQQYSRAPGTFGQGTKVEIKAGGGGSGGGGSGGGGSQVQLVQSGAEVKKPGSSVKVSCKASGGTFSSYGIHWVRQAPGQGLEWMGGIIPILGTANYAQKFQGRVTITADESTSTAYMELSSLRSEDTAVYYCAVPFFDVWGQGTLVTVSS
